Measured values as given in patent WO1994029351A2.

Key:
[1] = target: Purified human C1q (Sigma UK) (human) (UniProt P02745); experiment: cell-based or functional assay
[2] = target: FcγRIII on human peripheral blood mononuclear effector cells (human) (UniProt P08637); experiment: cell-based or functional assay
[3] = target: guinea pig complement (serum); experiment: cell-based or functional assay
[4] = target: FcγRI on IFNγ stimulated U937 cells (UniProt P12314); experiment: 50% inhibition of binding of FITC-labelled mouse lgG2a antibody to U937 cells, FACS
Sequence of FcγRI on IFNγ stimulated U937 cells (P12314 16-374 limits assumed): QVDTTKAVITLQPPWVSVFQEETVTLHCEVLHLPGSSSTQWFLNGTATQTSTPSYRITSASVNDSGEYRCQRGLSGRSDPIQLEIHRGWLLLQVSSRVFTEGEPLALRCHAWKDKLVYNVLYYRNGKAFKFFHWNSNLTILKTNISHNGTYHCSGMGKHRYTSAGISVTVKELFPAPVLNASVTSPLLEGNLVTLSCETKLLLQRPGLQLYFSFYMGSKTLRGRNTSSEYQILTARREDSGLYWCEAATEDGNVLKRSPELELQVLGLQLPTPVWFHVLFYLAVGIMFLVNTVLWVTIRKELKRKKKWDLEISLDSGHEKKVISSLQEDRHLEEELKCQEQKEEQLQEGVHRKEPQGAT

Sequence of Purified human C1q (Sigma UK) (human) (P02745 23-245 limits assumed, chain 1 of 3): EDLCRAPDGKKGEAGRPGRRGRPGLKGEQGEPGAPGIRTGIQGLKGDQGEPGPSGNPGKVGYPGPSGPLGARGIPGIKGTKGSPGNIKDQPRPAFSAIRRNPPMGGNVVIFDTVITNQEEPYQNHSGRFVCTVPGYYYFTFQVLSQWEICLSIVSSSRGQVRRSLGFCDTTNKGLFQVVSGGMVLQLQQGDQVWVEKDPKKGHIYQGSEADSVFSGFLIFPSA
Sequence of Purified human C1q (Sigma UK) (human) (P02746 28-253 limits assumed, chain 2 of 3, further chain): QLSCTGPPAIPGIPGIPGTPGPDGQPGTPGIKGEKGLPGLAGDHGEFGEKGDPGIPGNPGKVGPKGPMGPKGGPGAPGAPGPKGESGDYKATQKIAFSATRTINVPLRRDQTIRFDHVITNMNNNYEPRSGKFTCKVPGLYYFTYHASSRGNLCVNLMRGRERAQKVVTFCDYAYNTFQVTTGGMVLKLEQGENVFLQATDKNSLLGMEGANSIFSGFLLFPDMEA
Sequence of Purified human C1q (Sigma UK) (human) (P02747 29-245 limits assumed, chain 3 of 3, further chain): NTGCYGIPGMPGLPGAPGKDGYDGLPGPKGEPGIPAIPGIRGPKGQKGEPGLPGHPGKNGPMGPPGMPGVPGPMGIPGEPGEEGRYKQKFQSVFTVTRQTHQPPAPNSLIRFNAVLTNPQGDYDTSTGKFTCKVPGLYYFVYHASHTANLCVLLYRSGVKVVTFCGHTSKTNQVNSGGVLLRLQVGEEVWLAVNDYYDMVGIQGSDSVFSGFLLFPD
Sequence of FcγRIII on human peripheral blood mononuclear effector cells (human) (P08637 17-254): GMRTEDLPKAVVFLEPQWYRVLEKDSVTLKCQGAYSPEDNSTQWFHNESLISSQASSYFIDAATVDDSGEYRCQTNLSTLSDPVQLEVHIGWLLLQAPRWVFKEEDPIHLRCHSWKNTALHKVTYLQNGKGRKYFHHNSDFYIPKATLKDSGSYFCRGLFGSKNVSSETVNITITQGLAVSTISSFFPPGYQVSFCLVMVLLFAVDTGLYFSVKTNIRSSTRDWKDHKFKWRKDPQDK

IC50 [4]	Substance	mg/ml antibody necessary for half maximal cell killing by human complement [1]	percent plateau cell killing by human complement [1]	ng/ml antibody necessary for half maximal cell killing in ADCC [2]	plateau level killing with guinea pig complement [3]	maximum cell killing by human complement [1]	maximum killing in ADCC [2]	ng/ml antibody necessary for half maximal cell killing in ADCC (extrapolated value) [2]
	chimeric L243 G1[G237A] (from UniProt P01857 1-330; P01834 1-107) (antibody)	2 mg/mL	20%					
	chimeric L243 G1[K320A] (from UniProt P01857 1-330; P01834 1-107) (antibody)	0.6 mg/mL	70%	10 ng/mL				
	chimeric L243 G1[L235A] (from UniProt P01857 1-330; P01834 1-107) (antibody)	> 20 mg/mL	0%	9 ng/mL	49%			
	chimeric L243 G1[L235E] (from UniProt P01857 1-330; P01834 1-107) (antibody)	> 20 mg/mL	0%		40%			
	chimeric L243 G4[L235E] (from UniProt P01861 1-327; P01834 1-107) (antibody)	> 20 mg/mL	0%	> 100000 ng/mL				
130 µg/mL	chimeric L243 human lgG1 wild type (from UniProt P01857 1-330; P01834 1-107) (antibody)	0.6 mg/mL	65%		80%	64%		
	chimeric L243 human lgG2 (from UniProt P01859 1-326; P01834 1-107) (antibody)	> 20 mg/mL	0%	> 100000 ng/mL				
1200 µg/mL	chimeric L243 human lgG4 (from UniProt P01861 1-327; P01834 1-107) (antibody)	> 20 mg/mL	0%				20%	10000 ng/mL
